In patent US20150079657 one finds activity data, which are given here for four substances.

Holding throughout (experiment): cell_activity
Data set [1] deals with ZF(Oct4+420)-p300 (Artificial Sequence). The note with it: OCT4 mRNA in HEK293; at least 20-fold in K562; H3K27ac increased.
Data set [2] relates to ZF(Sox2+r475)-p300 (Artificial Sequence). To be noted: SOX2 mRNA in HEK293; nearly 2-fold or greater in K562.
In data set [3] the test system is ZF(Sox2+185)-p300 (Artificial Sequence). To be noted: SOX2 mRNA in HEK293; nearly 2-fold or greater in K562.
ZF(Sox2+185)-p300 (Artificial Sequence), sequence (chain, as listed by the source): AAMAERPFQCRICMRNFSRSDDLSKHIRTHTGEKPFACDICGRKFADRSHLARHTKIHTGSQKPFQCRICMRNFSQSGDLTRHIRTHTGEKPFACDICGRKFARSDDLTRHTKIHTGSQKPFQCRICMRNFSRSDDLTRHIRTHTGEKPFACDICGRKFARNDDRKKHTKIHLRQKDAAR
Data set [4] has as its system ZF(Oct4+286)-p300 (Artificial Sequence). The note with it: OCT4 mRNA in HEK293; at least 20-fold in K562; H3K27ac increased.

ZF(Sox2+r475)-p300 (Artificial Sequence), sequence (chain, as listed by the source): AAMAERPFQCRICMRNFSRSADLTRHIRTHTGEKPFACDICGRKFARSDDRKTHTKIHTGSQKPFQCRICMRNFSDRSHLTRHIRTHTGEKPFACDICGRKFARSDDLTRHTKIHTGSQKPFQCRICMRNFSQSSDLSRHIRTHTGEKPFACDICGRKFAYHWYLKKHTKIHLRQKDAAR
ZF(Oct4+420)-p300 (Artificial Sequence), sequence (chain, as listed by the source): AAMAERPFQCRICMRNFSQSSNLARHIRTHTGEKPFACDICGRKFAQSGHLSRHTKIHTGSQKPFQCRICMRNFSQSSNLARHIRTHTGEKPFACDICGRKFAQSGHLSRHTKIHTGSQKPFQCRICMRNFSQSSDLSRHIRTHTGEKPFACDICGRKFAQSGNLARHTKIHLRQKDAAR
ZF(Oct4+286)-p300 (Artificial Sequence), sequence (chain, as listed by the source): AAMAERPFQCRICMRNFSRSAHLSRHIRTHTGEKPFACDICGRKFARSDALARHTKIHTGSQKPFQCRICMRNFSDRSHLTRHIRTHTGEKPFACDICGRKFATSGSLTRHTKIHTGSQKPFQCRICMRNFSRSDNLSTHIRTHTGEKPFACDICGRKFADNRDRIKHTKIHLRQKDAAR

In data set [1], OCT4 +420 target site came in with an activity of more than 90 fold. In data set [2], SOX2 +r475 target site (reverse strand) gave an activity of more than 1.5 fold.

Consider SOX2 +185 target site, for which the activity in data set [3] is more than 1.5 fold. In data set [4], OCT4 +286 target site yielded an activity of more than 90 fold.
